Assay [1] has as its target T1, CD146 / MCAM on BECs and melanoma cells (Homo sapiens, UniProt P43121-1).
T1 construct: also called native CD146; CD146 expressed by BECs, melanoma cells; source: endogenous, on BECs and melanoma cell lines A375, CRL1676, HTB71 (fixed monolayers)
Kind of assay: immunostaining of cells or tissue; immunofluorescence on fixed cells (BECs, LECs, HDMECs, melanoma cells) and human skin cryosections, co-staining with anti-podoplanin or commercial anti-CD146 antibody. The note with it: one partner purified.

Assay [2] addresses T2, Recombinant human CD146 comprising the extracellular Met1-Gly559 portion of the protein precursor, C-terminal … (Homo sapiens, UniProt P43121-1).
T2 construct: signal peptide in the construct; human CD146 / MCAM / MUC18, extracellular Met1-Gly559 portion of the protein precursor (NP_006491.2); also called recombinant CD146; extracellular domain of recombinant human CD146; source: bought: Sino Biological Inc., Nr; 10115-H08H
Description: ELISA; plates coated with recombinant CD146 or BSA at 100, 10 and 1 ng/ml overnight at 4°C, blocked with TBST/ 5% BSA; scFv or scFv-Fc added serially diluted, RT overnight; HRP-conjugated detection antibodies, absorbance at 450 nm. The note with it: both partners purified. In general terms: In an ELISA, binding on a coated surface is turned into a signal by an enzyme label.

The target of assay [3] is T3, CD146 of BEC lysate treated with PNGase F (N-linked oligosaccharides removed) (Homo sapiens, UniProt P43121-1, oligosaccharides removed from N-linked glycoprotein with PNGase F).
T3 construct: human CD146 / MCAM (NP_006491), endogenous in primary human blood endothelial cells, after PNGase F; band shifted down to 95 kDa; PNGase F was added before or after the scFv; also called deglycosylated CD146; source: endogenous, BEC lysate, treated with PNGase F (3 hrs at 37°C)
Kind of assay: co-IP; BEC lysate incubated with scFv or scFv-Fc (or Fc only) at 4°C overnight, captured on Protein A/G resin; Western blot in reducing conditions with commercial anti-CD146 antibody; lysates with or without PNGase F, before or after addition of the scFv. To be noted: one partner purified. Background: In western blotting, separated proteins are transferred to a membrane and probed.

The target in assay [4] is T1, CD146 / MCAM on BECs and melanoma cells. Description: ELISA; whole cell ELISA on confluent monolayers in 96-well plates fixed with PBS/ 1% PFA; purified scFv or scFv-Fc added; absorbance at 450 nm. The note with it: one partner purified.

T1 sequence (P43121 24-646): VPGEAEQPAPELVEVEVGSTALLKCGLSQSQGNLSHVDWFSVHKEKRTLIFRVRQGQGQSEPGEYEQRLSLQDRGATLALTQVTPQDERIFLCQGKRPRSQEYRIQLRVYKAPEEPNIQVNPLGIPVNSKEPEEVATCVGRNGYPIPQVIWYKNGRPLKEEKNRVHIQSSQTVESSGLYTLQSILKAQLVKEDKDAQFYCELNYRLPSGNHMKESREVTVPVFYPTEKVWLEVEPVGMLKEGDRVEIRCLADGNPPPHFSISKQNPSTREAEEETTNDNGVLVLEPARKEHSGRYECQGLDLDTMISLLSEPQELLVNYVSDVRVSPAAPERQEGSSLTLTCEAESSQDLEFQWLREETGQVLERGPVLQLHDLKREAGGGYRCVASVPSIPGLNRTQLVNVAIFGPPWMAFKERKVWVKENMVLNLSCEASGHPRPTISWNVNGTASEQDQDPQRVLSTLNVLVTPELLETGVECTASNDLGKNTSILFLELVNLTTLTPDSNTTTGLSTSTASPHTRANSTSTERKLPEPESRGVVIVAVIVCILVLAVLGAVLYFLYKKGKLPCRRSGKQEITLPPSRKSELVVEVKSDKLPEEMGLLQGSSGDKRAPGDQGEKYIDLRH
T2 sequence (P43121 24-559): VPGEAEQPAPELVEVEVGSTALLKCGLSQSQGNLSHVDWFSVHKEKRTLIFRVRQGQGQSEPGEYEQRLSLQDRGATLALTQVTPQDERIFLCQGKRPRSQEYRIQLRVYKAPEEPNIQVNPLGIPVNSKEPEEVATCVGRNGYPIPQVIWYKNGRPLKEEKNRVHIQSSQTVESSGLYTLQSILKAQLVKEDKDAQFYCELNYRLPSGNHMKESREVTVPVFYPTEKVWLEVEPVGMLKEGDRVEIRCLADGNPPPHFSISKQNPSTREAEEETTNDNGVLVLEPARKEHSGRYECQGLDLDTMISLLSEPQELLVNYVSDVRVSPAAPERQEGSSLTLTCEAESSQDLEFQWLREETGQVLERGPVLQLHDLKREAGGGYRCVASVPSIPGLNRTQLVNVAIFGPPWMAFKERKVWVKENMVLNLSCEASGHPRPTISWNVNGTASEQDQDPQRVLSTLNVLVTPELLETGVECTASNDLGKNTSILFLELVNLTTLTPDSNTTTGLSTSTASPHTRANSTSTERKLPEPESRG
T3 sequence (P43121 24-646): as the sequence (P43121 24-646) above

B1: scFv-Fc B6-11 fusion antibody (Fc fusion, human)
VH: EVQLVESGGGLVQGGSLRLSCAASGFTFSSYAMSWVRQAPGKGLEWVSAISGSGGSTYYADSVKGRFTISRDNSKNTLYLQMNSLRAEDTAVYYCAKSSNVRTFDYWGQGTLVTVSR
VL: SSELTQDPAVSVALGQTVRITCQGDSLRSYYASWYQQKPGQAPVLVIYGKNNRPSGIPDRFSGSSSGNTASLTITGAQAEDEADYYCNSSTPLSAPVVFGGGTKLTVL
notes: Runs as a dimer under non-reducing SDS-PAGE; the Fc is that of the vector pFUSE-mIgG2B-Fc2 (Invivogen); also called scFv-mFc fusion antibody; source: HEK293, transfected (pFUSE-mIgG2B-Fc2), purified from culture supernatants (proteinAG UltraLink Resin); not shown: Fc (murine IgG2B), C-terminal, kept
Turning to B1, the binding result in assay [1] and in assay [2] was “binds” throughout.

B2: scFv B6-11 (scFv, V domains shown)
VH: B1 VH
VL: B1 VL
notes: VH of scFv B6-11 (ETH-2 library, human germline heavy chain segment with randomised CDR3); linker region; VL of scFv B6-11 (ETH-2 library, human germline light chain segment with randomised CDR3); Selected from the semi-synthetic human ETH-2 phage library on BECs (round 6); His-tag and Flag-tag come from phagemid pDN332; also called scFv B6-11 antibody; anti-CD146 scFv B6-11; source: E. coli TG1, …
On to B2, for which the binding result in assay [3], in assay [4] and in assay [2] was “binds” throughout.

For the origin of these results see paper PMC4439027, “Selection of scFv Antibody Fragments Binding to Human Blood versus Lymphatic Endothelial Surface Antigens by Direct Cell Phage Display” (PLoS ONE, 2015).
